In publication PMC6417941 one finds elongation rate on histone-bound (HTkB) templates, against no factor data, which are given here for one molecule.

This assay deals with Thermococcus kodakarensis RNA polymerase (Thermococcus kodakarensis).

B1: Spt4-Spt5 complex (complex)
chain 1: MAKERACRHCHYITTEDRCPVCGSRDLSDDWFDLVIVLDVESRIAKKLRESIPEAAKVPGKYAIRVR
chain 2: MAEGKIFTVSVTVGQETTTANLIYSKAKTYNLPLYAILSPSKVKGYIFIEAPNKSAVEEAIRGIRHAKRVLPGEIPFSEIEHFLEEKPAVSGFEPGDIVELIAGPFKGEKAKVVRVDESKDEIVVELVSSVVPIPVTVRGEYVRLISKRQKE
On to B1, for which the elongation rate on histone-bound (HTkB) templates, against no factor was found to be 1.5 fold.
